According to the supplement of paper PMC9170038:

Tested on: MS2 coat protein
Assay: apparent KD of MS2 coat protein; higher = weaker reporter binding
Conditions: Eterna round: R107; input ligand: theophylline 2 mM
Experimental: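 RNA-MaP round R107: designed RNA switches with theophylline, tryptophan, arginine or FMN aptamers are transcribed on-chip within common flanks. They are titrated with SNAP-549-labelled MS2 coat protein in RNA-MaP buffer (100 mM Tris pH 7.5, 80 mM KCl, 4 mM MgCl2), without ligand or with the indicated ligand. Median apparent KD per design.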

Compared with “UAUAUAUAAACAUGAGGAUCACCCAUGUAACGAGGACCGGUACGGCCGCCACUCGGCCGGCAAGGGAGAGGACGGGAAACCGUCG [ETA NP+V+V2 #27]”, “GUAGCGACGACGGCCGCCACUCACAGGUGAGGGUAGACCAACCUUCACAUGAGGAUCACCCAUGUGAGGACCGGGUUGUCGCUAC [#12 Exclusion Tryptophan B]” is 5.1-fold higher in “apparent KD of MS2 coat protein” value: 15.9 nM for the first, 81.4 nM for the second.

Compared with “GCCUAGCAUCGAAGGAGCGGGCAUUACGCGCGAAAGCGCGAUGCACGAGGAUCACCCGUGUCCCAGGUAGGUCGCGAUGCUAGGC [SSAB Alternative Aptamer #4 V+V2]”, “GCGAUGGAGCGAAGGAGCGUGCUGGUACAUGAGGAUCACCCAUGUGAACCGCAGCGCUAAGCACAGGUAGGUCGCGCUCCAUCGC [EAB NP+V+V2 #14]” is 23-fold lower in “apparent KD of MS2 coat protein” value: 527 nM for the first, 23 nM for the second.

Compared with “UUUACAUGAGGAUCACCCAUGUGCCAUGAUACCAGACAUGAAAAUGUCCCUUGGCAGCAUGAGUGAUAUGCGUCGGAAACGACGC [Jundrov]”, “AUAUAUACAUGAGGAUCACCCAUGUUAUUACGAGGACCGGUACGGCCGCCACUCGAUAGAGUAGAAGUAAAUUGUAAUUCAUGUU [JR_ExcTryptoA_Sub016]” is 100-fold lower in “apparent KD of MS2 coat protein” value: 1210 nM for the first, 11.6 nM for the second.

Same assay, conditions: Eterna round: R107; input ligand: tryptophan 2.4 mM

First: GGCGCUGCGUCGGCCGCCACUAGCGGGUAAUGGGUGUACAUGAGGAUCACCCAUGUAAUAUGGCCUAGGACCGGGACGUGGCGCC [Moose]
Second: UGUAUGUGAUUUGAUACCAGACCAACUGGUAAUACAUGAGGAUCACCCAUGUAGAUUUGGGUCCCUUGGCAGCAAAUCGCAUACU [SSTheo B #23]
The “apparent KD of MS2 coat protein” value of the first is 13-fold higher: 620 nM for the first, 46.1 nM for the second.

First: UAAAACAUGAGGAUCACCCAUGUAAAAGAUACCAGAGUGAUGAUCCUCCCUUGGCAGCUUAACGCUGAUUGAUUACAAUCAGCGA [Mat - Same State Theophlline A - Mod of Eli - D21]
Second: GGUAGCAGGACUGAUACCAGUCCAGCGAAUCAUACGACGCAACAUGAGGAUCACCCAUGUGACCCUUGGCAGCAGACUGCUACCG [Same State Theophylline B GF 28]
The “apparent KD of MS2 coat protein” value of the first is 2-fold higher: 53.3 nM for the first, 26.7 nM for the second.

Compared with “AUUUAUAGUUGUGAUACCAGACUUACAUGAGGAUCACCCAUGUUACUUAAAUGUUUUGAUGUCCCUUGGCAGCACUGUUUUUUUA [JR_Nu_ExcTheophyB_Sub029]”, “GGGCUCGGAGUGCGGCGUGUUCCGCUCCGUCGAGGACCGGUACGGCCGCCACUCGACAUGAGGAUCACCCAUGUCCGAGCGCGCG [#1 Exclusion - Tryptophan A Attempt #6 (HarryS)]” is 1.7-fold lower in “apparent KD of MS2 coat protein” value: 16.4 nM for the first, 9.64 nM for the second.

“ACGACGCAUAGUGAUACCAGUAGAACAUGAGGAUCACCCAUGUCUGUUAUGUACAAAUACUGCCCUUGGCAGCACUAUGCGUCAG [SSTheo B #5]” and “AUUAAGGAUAUGUAGAAGGCGGAGAAGAGACGAGGACCGGUACGGCCGCCACUCGUGUUAGUUAACAUGAGGAUCACCCAUGUAA [#06 Tryptophan A Same State]” are within 1.5-fold of each other in “apparent KD of MS2 coat protein” value: 11.6 nM for the first, 17.1 nM for the second.

First: GGAUAGGACACGGCCGCCACUAGCUAGGAUACUAGCAACAUUUCCUCGCUUGAGGAUCACCCAAGUAGGACCGGGUGUCCUAUCG
Second: UGGUACAUGAGGAUCACCCAUGUUCCAGAUACCAGACUCCCGGUGGUCCCUUGGCAGCUGGUGGUACAUGAGGAUCACCCAUGUG [Exclusion Theophylline A GF17]
The “apparent KD of MS2 coat protein” value of the first is 16-fold higher: 482 nM for the first, 30.8 nM for the second.

Compared with “GGACUAACCAGAAGGAGCGGCACAAGCAGAAACUGCAAUCCUCCGCACGAGGAUCACCCGUGUCAGGUAGGUCGCUGGUUAGUCG [ArgBX 28]”, “AGCAGCUGGUUUCUUUUCUUUACAGCUGCACGAGGACCGGUACGGCCGCCACUCGAGGACAUGAGGAUCACCCAUGUGCCGGUCG” is 2.8-fold lower in “apparent KD of MS2 coat protein” value: 63.7 nM for the first, 22.7 nM for the second.

Going from “GGCCAAAAGGCGGCCGCCACUCAAGAGUAGCAUGGAAAGACAUGAGGAUCACCCAUGUAAAGAAAGAGGACCGGGCCAAAAGGCC” to “CGGCCCUCACCUGAGGAUCACCCGGGUGAUACCAGCCUGGAAACAGGCCCUUGGCAGCACCAGGUCAUCAAAGAUGACCAAGCCG [TheoAX 26 #OpenEnded #AlternativeMS2]”, the “apparent KD of MS2 coat protein” value falls from 193 nM to 105 nM (1.8-fold).

“ACUGGACAUGAGGAUCACCCAUGUGGCGAUACCAGUUUCAGCGGGAACCCUUGGCAGCGCGGUGCCGGCCAUAGAAGUUCUGGGA [theeternabot_sameState_MS2_Theo_A_39]” and “AAUGCUGCCAAGGAUUCCUCAUGAGCAGAUACCAGCUAGGAAACUAGCCCUUGGCAGCUGCAACAUGAGGAUCACCCAUGUAAUA [(T)'-(M)'-(T1)-(T2)-(M1)-(M2)_Design7]” are within 1.5-fold of each other in “apparent KD of MS2 coat protein” value: 40.6 nM for the first, 35.7 nM for the second.

Compared with “GCGGUCCACUUGGAUACCAGCAGAUUAAUAAACAUGAGGAUCACCCAUGUAAGCGCCUUGUGCCCUUGGCAGCCAGGGUGGUCAG [theeternabot_sameState_MS2_Theo_B_50]”, “UCUUGGUCCGCAAGGACCGUGAGUUGCGAUACCAGCACGGUAACGUGCCCUUGGCAGCGCACAUGAGGAUCACCCAUGUGGUGUU [#1 Exclusion - Theophylline A Attempt #15 (HarryS)]” is 2.4-fold higher in “apparent KD of MS2 coat protein” value: 88.4 nM for the first, 210 nM for the second.

First: GUUUAGAGCUCGGCCGCCACUCAAACAUGAGGAUCACCCAUGUAAAACAUGAGGAUCACCCAUGUGAGGACCGGGAGAAAUAAGA [Exclusion Tryptophan B GF7]
Second: UGUAUGUGAUUUGAUACCAGACCAGCUGGUGGUACCUGAGGAACACCCAGGUAGGUUUGGGUCCCUUGGCAGCAAAUCGCAUACU [SS Theo B #24 Ms7]
The “apparent KD of MS2 coat protein” value of the first is 13-fold higher: 420 nM for the first, 33.3 nM for the second.

“GGACUAACCAGAAGGAGCGGCACGCAGAAACUGCAAAAUCCUCCGCACGAGGAUCACCCGUGUCAGGUAGGUCGCUGGUUAGUCG [ArgBX 28]” and “UGUAAUGUGGGAAGGAGCGCAUACUUCACAUGAGGAUCACCCAUGUCAAGACGUGAGUCAGUGCAGGUAGGUCGCCUAGUUUAGA [Same State - Arginine B (Freestyle 18)]” are within 1.5-fold of each other in “apparent KD of MS2 coat protein” value: 33.8 nM for the first, 42 nM for the second.

“GCGCGGCGAGUGCGGCGUGUUCCGCUCCGUCGAGGACCGGUACGGCCGCCACUCGACAUGAGGAUCACCCAUGUCGCCGCGCGCG [Exclusion - Tryptophan A Attempt #3]” and “UAUAUAUAAACAUGAGGAUCACCCAUGUAACGAGGACCGGUACGGCCGCCACUCGGCCGGCAAGGGAGAGGACGGGAAACCGUCG [ETA NP+V+V2 #27]” are within 1.5-fold of each other in “apparent KD of MS2 coat protein” value: 13.5 nM for the first, 17.1 nM for the second.

First: GUAGCGACGACGGCCGCCACUCACAGGUGAGGGUAGACCAACCUUCACAUGAGGAUCACCCAUGUGAGGACCGGGUUGUCGCUAC [#12 Exclusion Tryptophan B]
Second: UGACAUUGCUGCGAUACCAGACAUGAGGAUCACCCAUGUACCAAGGUAACCGAAAGGCAUGUCCCUUGGCAGCGCAGCAAUGUCU [MAT - Exclusion Theophlline B - Mod of Eli - D13]
The “apparent KD of MS2 coat protein” value of the first is 14-fold higher: 168 nM for the first, 12.2 nM for the second.

Going from “GCCUAGCAUCGAAGGAGCGGGCAUUACGCGCGAAAGCGCGAUGCACGAGGAUCACCCGUGUCCCAGGUAGGUCGCGAUGCUAGGC [SSAB Alternative Aptamer #4 V+V2]” to “GCGAUGGAGCGAAGGAGCGUGCUGGUACAUGAGGAUCACCCAUGUGAACCGCAGCGCUAAGCACAGGUAGGUCGCGCUCCAUCGC [EAB NP+V+V2 #14]”, the “apparent KD of MS2 coat protein” value falls from 343 nM to 41.9 nM (8.2-fold).

Going from “UUUACAUGAGGAUCACCCAUGUGCCAUGAUACCAGACAUGAAAAUGUCCCUUGGCAGCAUGAGUGAUAUGCGUCGGAAACGACGC [Jundrov]” to “GGAUAGAUAGGAGAUACCAGAUACAUCAACAUGAGGAUCACCCAUGUGUCUGCACUAAGUGUCCCUUGGCAGCUCGGAGAUCUGA [#16 Same State - Theophylline B]”, the “apparent KD of MS2 coat protein” value falls from 194 nM to 32.4 nM (6-fold).

For “GGGAAAGAAUGUGAUACCAGAGAACCGGUCUCCAUCAAUAUACAUGAGGAUCACCCAUGUCUCCCUUGGCAGCACCAUCAUCAAA [Exclusion Theophylline B GF 27]”, the “apparent KD of MS2 coat protein” value was 22 nM.
